± gives the standard deviation of the averaged measurements.
Experiments:
Saccharomyces cerevisiae [1] = test: protein stability index of tFT-peptide fusion (C-terminal peptide) (PSI (0-1 scale)); higher = more stable (slower turnover); conditions: genetic background: wild type; temperature: 30 C
Saccharomyces cerevisiae [2] = test: as above
Experimental: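 MPS profiling in S. cerevisiae of the tFT-X12 degron library: putative degron peptides plus stable controls, 12 aa, fused to the C-terminus of a sfGFP-mCherry timer. Cells are FACS-sorted into 8 mCherry/sfGFP bins and deep-sequenced. PSI runs from 0 (unstable) to 1 (stable). Backgrounds are wild type, das1Δ and doa10Δ at 30 °C, and wild type, das1Δ, cdc34-1 and cdc53-1 at 37 °C; 2-3 technical replicates each.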

[3] = genetic background: cdc34-1, temperature: 37 C
[4] = genetic background: cdc53-1, temperature: 37 C
[5] = genetic background: das1 deletion, temperature: 30 C
[6] = genetic background: das1 deletion, temperature: 37 C
[7] = genetic background: doa10 deletion, temperature: 30 C
[8] = genetic background: wild type, temperature: 30 C
[9] = genetic background: wild type, temperature: 37 C
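Note: PSI is a weighted mean of sequencing reads over stability bins, variants kept only with over 10 reads, mCherry proximal and sfGFP distal, peptide attached via GGGS linker.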

VTRLLLSRIDCY
protein stability index (Saccharomyces cerevisiae [1]): 0.445 ± 0.11 | protein stability index (Saccharomyces cerevisiae [2]; [3]): 0.437 ± 0.018 | protein stability index (Saccharomyces cerevisiae [2]; [4]): 0.445 ± 0.0057 | protein stability index (Saccharomyces cerevisiae [2]; [5]): 0.376 ± 0.028 | protein stability index (Saccharomyces cerevisiae [2]; [6]): 0.501 ± 0.016 | protein stability index (Saccharomyces cerevisiae [2]; [7]): 0.346 ± 0.011 | protein stability index (Saccharomyces cerevisiae [2]; [8]): 0.367 ± 0.025 | protein stability index (Saccharomyces cerevisiae [2]; [9]): 0.468 ± 0.022

GGLLSQLLRSIG
protein stability index (Saccharomyces cerevisiae [1]): 0.425 ± 0.047 | protein stability index (Saccharomyces cerevisiae [2]; [3]): 0.664 ± 0.026 | protein stability index (Saccharomyces cerevisiae [2]; [4]): 0.723 ± 0.019 | protein stability index (Saccharomyces cerevisiae [2]; [5]): 0.617 ± 0.024 | protein stability index (Saccharomyces cerevisiae [2]; [6]): 0.743 ± 0.0075 | protein stability index (Saccharomyces cerevisiae [2]; [7]): 0.2341 ± 0.0008 | protein stability index (Saccharomyces cerevisiae [2]; [8]): 0.279 ± 0.055 | protein stability index (Saccharomyces cerevisiae [2]; [9]): 0.5807 ± 0.0052

RGCLVHSGFFIV
protein stability index (Saccharomyces cerevisiae [1]): 0.401 ± 0.067 | protein stability index (Saccharomyces cerevisiae [2]; [3]): 0.65 ± 0.034 | protein stability index (Saccharomyces cerevisiae [2]; [4]): 0.683 ± 0.011 | protein stability index (Saccharomyces cerevisiae [2]; [5]): 0.62 ± 0.018 | protein stability index (Saccharomyces cerevisiae [2]; [6]): 0.6898 ± 0.0051 | protein stability index (Saccharomyces cerevisiae [2]; [7]): 0.212 ± 0.0034 | protein stability index (Saccharomyces cerevisiae [2]; [8]): 0.239 ± 0.027 | protein stability index (Saccharomyces cerevisiae [2]; [9]): 0.4987 ± 0.0029

VFLCVRLGFIFL
protein stability index (Saccharomyces cerevisiae [1]): 0.446 ± 0.026 | protein stability index (Saccharomyces cerevisiae [2]; [3]): 0.419 ± 0.0062 | protein stability index (Saccharomyces cerevisiae [2]; [4]): 0.486 ± 0.0065 | protein stability index (Saccharomyces cerevisiae [2]; [5]): 0.359 ± 0.029 | protein stability index (Saccharomyces cerevisiae [2]; [6]): 0.529 ± 0.012 | protein stability index (Saccharomyces cerevisiae [2]; [7]): 0.404 ± 0.02 | protein stability index (Saccharomyces cerevisiae [2]; [8]): 0.352 ± 0.023 | protein stability index (Saccharomyces cerevisiae [2]; [9]): 0.471 ± 0.023

WILIGVRFSCFG
protein stability index (Saccharomyces cerevisiae [1]): 0.299 ± 0.0058 | protein stability index (Saccharomyces cerevisiae [2]; [3]): 0.109 ± 0.0085 | protein stability index (Saccharomyces cerevisiae [2]; [4]): 0.233 ± 0.069 | protein stability index (Saccharomyces cerevisiae [2]; [5]): 0.189 ± 0.034 | protein stability index (Saccharomyces cerevisiae [2]; [6]): 0.339 ± 0.015 | protein stability index (Saccharomyces cerevisiae [2]; [7]): 0.159 ± 0.013 | protein stability index (Saccharomyces cerevisiae [2]; [8]): 0.165 ± 0.021 | protein stability index (Saccharomyces cerevisiae [2]; [9]): 0.276 ± 0.018

FPVWTALLTVRA
protein stability index (Saccharomyces cerevisiae [1]): 0.262 ± 0.016 | protein stability index (Saccharomyces cerevisiae [2]; [3]): 0.0896 ± 0.022 | protein stability index (Saccharomyces cerevisiae [2]; [4]): 0.128 ± 0.015 | protein stability index (Saccharomyces cerevisiae [2]; [5]): 0.181 ± 0.035 | protein stability index (Saccharomyces cerevisiae [2]; [6]): 0.259 ± 0.0096 | protein stability index (Saccharomyces cerevisiae [2]; [7]): 0.14 ± 0.024 | protein stability index (Saccharomyces cerevisiae [2]; [8]): 0.189 ± 0.014 | protein stability index (Saccharomyces cerevisiae [2]; [9]): 0.22 ± 0.029

CRLRYSILWFRL
protein stability index (Saccharomyces cerevisiae [1]): 0.152 ± 0.017 | protein stability index (Saccharomyces cerevisiae [2]; [3]): 0.104 ± 0.024 | protein stability index (Saccharomyces cerevisiae [2]; [4]): 0.09746 ± 0.00035 | protein stability index (Saccharomyces cerevisiae [2]; [5]): 0.245 ± 0.033 | protein stability index (Saccharomyces cerevisiae [2]; [6]): 0.309 ± 0.032 | protein stability index (Saccharomyces cerevisiae [2]; [7]): 0.201 ± 0.016 | protein stability index (Saccharomyces cerevisiae [2]; [8]): 0.124 ± 0.017 | protein stability index (Saccharomyces cerevisiae [2]; [9]): 0.155 ± 0.006

LWFVIYLLCFFV
protein stability index (Saccharomyces cerevisiae [1]): 0.348 ± 0.029 | protein stability index (Saccharomyces cerevisiae [2]; [3]): 0.394 ± 0.015 | protein stability index (Saccharomyces cerevisiae [2]; [4]): 0.395 ± 0.0045 | protein stability index (Saccharomyces cerevisiae [2]; [5]): 0.328 ± 0.022 | protein stability index (Saccharomyces cerevisiae [2]; [6]): 0.482 ± 0.024 | protein stability index (Saccharomyces cerevisiae [2]; [7]): 0.285 ± 0.0031 | protein stability index (Saccharomyces cerevisiae [2]; [8]): 0.291 ± 0.04 | protein stability index (Saccharomyces cerevisiae [2]; [9]): 0.452 ± 0.0078

LSILLFVQFFPP
protein stability index (Saccharomyces cerevisiae [1]): 0.305 ± 0.0053 | protein stability index (Saccharomyces cerevisiae [2]; [3]): 0.317 ± 0.023 | protein stability index (Saccharomyces cerevisiae [2]; [4]): 0.371 ± 0.0032 | protein stability index (Saccharomyces cerevisiae [2]; [5]): 0.27 ± 0.021 | protein stability index (Saccharomyces cerevisiae [2]; [6]): 0.4113 ± 0.00046 | protein stability index (Saccharomyces cerevisiae [2]; [7]): 0.24 ± 0.0013 | protein stability index (Saccharomyces cerevisiae [2]; [8]): 0.253 ± 0.012 | protein stability index (Saccharomyces cerevisiae [2]; [9]): 0.384 ± 0.0082

DAGSSYRFFRFI
protein stability index (Saccharomyces cerevisiae [1]): 0.425 ± 0.022 | protein stability index (Saccharomyces cerevisiae [2]; [3]): 0.693 ± 0.071 | protein stability index (Saccharomyces cerevisiae [2]; [4]): 0.755 ± 0.011 | protein stability index (Saccharomyces cerevisiae [2]; [5]): 0.661 ± 0.011 | protein stability index (Saccharomyces cerevisiae [2]; [6]): 0.739 ± 0.0078 | protein stability index (Saccharomyces cerevisiae [2]; [7]): 0.315 ± 0.0095 | protein stability index (Saccharomyces cerevisiae [2]; [8]): 0.344 ± 0.01 | protein stability index (Saccharomyces cerevisiae [2]; [9]): 0.578 ± 0.0081
